Measurements reported in patent US20110243928A1 (published 2011).

How the values were obtained:
[1] = target: T1, E. coli-expressed recombinant human IL-13 (human, UniProt P35225 35-146); assay: BIAcore analysis 4, antibody captured on Protein A, IL-13 in solution
T1 construct: Untagged E. coli-expressed human IL-13; also called hIL-13; human IL13 (CA)
Description: (§1) Completed for both human and cynomolgus IL-13 (E. coli-expressed protein). The quoted KD values are the average from 5 different IL-13 concentration curves (done in triplicate).
(§2) The kinetics analysis was performed on a Biacore 3000 machine, using an antibody capture method. Briefly, for the chimeric 6A1 and humanised antibody constructs Protein A capture was used, whilst for the parental murine 6A1 antibody, capture was by a anti-mouse Fc antibody supplied by Biacore. Briefly, the method is as follows, the capture ligand was immobilised to a CM5 Biosensor chip by primary amine coupling in accordance with Biacore standard protocols and using the reagents supplied in Biacores' primary amine coupling kit. The method involves activation CM5 sensor surface by passing a solution of 50 mM N-hydroxy-succinimide (NHS) and 200 mM N-ethyl-N′-dimethylaminopropyl […] (EDC) over the surface. Then, the capture ligand (dissolved in acetate buffer pH5 or pH4.5) was coupled to the activated sensor surface after which any still activated esters were blocked by an injection of 1M ethanolamine hydrochloride, pH8.5.
(§3) The candidate antibody was then passed over the Protein A or anti-mouse Fc antibody surface, depending on whether it was human or mouse in origin and captured. Once a stable binding signal was seen IL13 was passed over the captured antibody surface at various defined concentrations. The subsequent binding curves were analysed with Biacore analysis software BIAeval v4.1 to determine kinetics. The experiments were carried out using Biacore HBS-EP buffer.

[2] = target: T2, E. coli-expressed recombinant cynomolgus IL-13 (cynomolgus, UniProt Q5I6E4 21-132 (Macaca thibetana entry)); assay: as above
T2 construct: also called cyno IL13 (CA); cIL-13
T2 chain: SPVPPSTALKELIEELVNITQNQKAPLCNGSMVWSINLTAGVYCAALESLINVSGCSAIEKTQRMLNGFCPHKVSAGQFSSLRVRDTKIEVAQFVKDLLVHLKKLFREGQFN
Description: as §1, §2, §3

T1 sequence (P35225 other isoform, or with tags, fused parts or gaps): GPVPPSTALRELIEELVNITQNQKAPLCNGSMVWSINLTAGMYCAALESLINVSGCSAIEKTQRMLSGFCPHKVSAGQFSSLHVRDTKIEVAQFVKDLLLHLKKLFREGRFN

Kd [1]: 170 pM
koff [1]: 0.00014 s⁻¹
kon [1]: 824000 M⁻¹ s⁻¹
Kd [2]: 80 pM
koff [2]: 5.86e-05 s⁻¹
kon [2]: 730000 M⁻¹ s⁻¹
B1: L1+A1 (antibody, human IgG1, kappa, V domains shown)
VH: QVQLVQSGAEVKKPGSSVKVSCKASGFYIKDTYMHWVRQAPGQGLEWMGTIDPANGNTKYVPKFQGRVTITADESTSTAYMELSSLRSEDTAVYYCARSIYDDYHYDDYYAMDYWGQGTLVTVSS
VL: DIVMTQSPLSLPVTPGEPASISCRSSQNIVHINGNTYLEWYLQKPGQSPRLLIYKISDRFSGVPDRFSGSGSGTDFTLKISRVEADDVGIYYCFQGSHVPWTFGQGTKLEIKR
notes: Humanised 6A1, VH construct A1 and VL construct L1, human gamma1 wild type / kappa constant regions; also called A1L1; humanised anti-IL-13 mAb L1+A1
